Assay results as given in the RNAGym collection of RNA variant scans (doi:10.1093/molbev/msab373).

B1: Azoarcus group I ribozyme (parent)
chain: GUGCCUUGCGCCGGGAAACCACGCAAGGGAUGGUGUCAAAUUCGGCGAAACCUAAGCGCCCGCCCGGGCGUAUGGCAACGCCGAGCCAAGCUUCGGCGCCUGCGCCGAUGAAGGUGUAGAGACUAGACGGCACCCACCUAAGGCAAACGCUAUGGUGAAGGCAUAGUCCAGGGAGUGGCGAAAGUCACACAAACCGG

Variants of: B1
Test: reverse-splicing fitness (ratio to wild type); higher = more active; in vitro selection; Mg2+ level not given
How it was run: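 An in vitro group I ribozyme library with randomized positions was T7-transcribed and gel-purified. In triplicate, 10 pmol RNA in EPPS pH 7.5 was reacted with 50 pmoles of a 30-nt RNA substrate for 1 h at 37 °C across several added MgCl2 levels (1–48 mM), then stopped with EDTA. Products were reverse transcribed from a substrate-complementary primer, PCR-amplified and sequenced (HiSeq 4000). Fitness is a variant's read proportion after selection over that before, normalised to wild type.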

Variant	reverse-splicing fitness
C82G A111C U176G	0.0517
C82G A111C U176C	0.139
C82G A111C U176A	0.133
C82G A111C C150G C169G U176A	0.00734
C82G A111C C150G C169G U176C	0.00598
C82G A111C C150G C169G U176G	0.00603
C82G A111G A120C A145C C150A	0.011
C82G A111G A120C A145C C150G	0.0108
C82G A111G A120C A145C C150U	0.0209
C82G A111G A120C A145C C150G C169U U176G	0.00551
C82G A111G A120C A145C C150G C169U U176C	0.0131
C82G A111G A120C A145C C150G C169U U176A	0.00714
C82G A111G A120C A145C C150A C169A	0.00953
C82G A111G A120C A145C C150A C169U	0.00986
C82G A111G A120C A145C C150A C169G	0.00899
C82G A111C C169A U176C	0.023
C82G A111C C169A U176A	0.0198
C82G A111C C169A U176G	0.00611
C82G A111G A120C A145C C169G U176A	0.0254
C82G A111G A120C A145C C169G U176C	0.0182
C82G A111G A120C A145C C169G U176G	0.0055

Variant	reverse-splicing fitness
C82G A111G A120C A145G C150A C169A	0.0118
C82G A111G A120C A145G C150A C169U	0.0118
C82G A111G A120C A145G C150A C169G	0.0104
C82G A111G A120C A145C C169A	0.00695
C82G A111G A120C A145C C169G	0.00871
C82G A111G A120C A145C C169U	0.0144
C82G A111G A120C A145C C150U C169A U176C	0.00829
C82G A111G A120C A145C C150U C169A U176G	0.00589
C82G A111G A120C A145C C150U C169A U176A	0.012
C82G A111G A120C A145C C150A U176G	0.00662
C82G A111G A120C A145C C150A U176A	0.0112
C82G A111G A120C A145C C150A U176C	0.0111
C82G A111G A120C A145G C150G	0.0123
C82G A111G A120C A145G C150A	0.0184
C82G A111C C150G C169U U176G	0.00599
C82G A111C C150G C169U U176C	0.0127
C82G A111C C150G C169U U176A	0.00763
C82G A111G A120C A145G C150G C169G	0.00764
C82G A111G A120C A145G C150G C169U	0.00987
C82G A111G A120C A145G C150G C169A	0.00978
C82G A111G A120C A145C C150G U176C	0.00886

Variant	reverse-splicing fitness
C82G A111G A120C A145C C150G U176G	0.0035
C82G A111G A120C A145C C150G U176A	0.00574
C82G A111G A120C A145C C150G C169G U176A	0.0112
C82G A111G A120C A145C C150G C169G U176G	0.006
C82G A111G A120C A145C C150G C169G U176C	0.0101
C82G A111G A120C A145G C150A C169U U176G	0.00817
C82G A111G A120C A145G C150A C169U U176A	0.0153
C82G A111G A120C A145G C150A C169U U176C	0.015
C82G A111G A120C A145G C150G C169A U176A	0.0153
C82G A111G A120C A145G C150G C169A U176G	0.0091
C82G A111G A120C A145G C150G C169A U176C	0.0151
C82G A111C C150A C169A U176G	0.00921
C82G A111C C150A C169A U176C	0.0158
C82G A111C C150A C169A U176A	0.0183
C82G A111C C150U U176A	0.0699
C82G A111C C150U U176G	0.0217
C82G A111C C150U U176C	0.0801
C82G A111G A120C A145C C150U C169G U176A	0.0242
C82G A111G A120C A145C C150U C169G U176C	0.0152
C82G A111G A120C A145C C150U C169G U176G	0.0061
C82G A111C C150G C169G	0.00655

Variant	reverse-splicing fitness
C82G A111C C150G C169A	0.00894
C82G A111C C150G C169U	0.00898
C82G A111G A120C A145C C169U U176C	0.01
C82G A111G A120C A145C C169U U176G	0.00475
C82G A111G A120C A145C C169U U176A	0.0142
C82G A111C C150G C169A U176C	0.0108
C82G A111C C150G C169A U176G	0.00647
C82G A111C C150G C169A U176A	0.00955
C82G A111G A120C A145G C150A U176A	0.0144
C82G A111G A120C A145G C150A U176G	0.0119
C82G A111G A120C A145G C150A U176C	0.0254
C82G A111G A120C A145C U176A	0.0266
C82G A111G A120C A145C U176G	0.00938
C82G A111G A120C A145C U176C	0.035
C82G A111C C150G U176A	0.00967
C82G A111C C150G U176G	0.00449
C82G A111C C150G U176C	0.0159
C82G A111G A120C	0.0886
C82G A111C C169U U176A	0.0194
C82G A111C C169U U176G	0.00759
